Test results reported in patent publication US20150328292A1, “CASPASE POLYPEPTIDES HAVING MODIFIED ACTIVITY AND USES THEREOF” (BELLICUM PHARMACEUTICALS, INC., priority 2014, published 2015).
Positions count from the first letter of the chain named. Numbers in names are those of the source. Entries after “also recorded” stand apart in the source; their conditions may differ. Where a SMILES comes first, the peptide text is derived from it. The star is where a group is joined. Cbz = O=C(OCc1ccccc1)*; CH2F = FC*

B1: D330A: ΔCasp9 (res. 135-416) D330A, SEQ ID NO: 24 (protein)
chain: GFGDVGALESLRGNADLAYILSMEPCGHCLIINNVNFCRESGLRTRTGSNIDCEKLRRRFSSLHFMVEVKGDLTAKKMVLALLELARQDHGALDCCVVVILSHGCQASHLQFPGAVYGTDGCPVSVEKIVNIFNGTSCPSLGGKPKLFFIQACGGEQKDHGFEVASTSPEDESPGSNPEPDATPFQEGLRTFDQLAAISSLPTPSDIFVSYSTFPGFVSWRDPKSGSWYVETLDDIFEQWAHSEDLQSLLLRVANAVSVKGIYKQMPGCFNFLRKKLFFKTS
B2: D330A-N405Q: ΔCasp9 (res. 135-416) D330A N405Q, SEQ ID NO: 28 (protein)
chain: B1 chain with N271Q
B3: N405Q: ΔCasp9 (res. 135-416) N405Q, SEQ ID NO: 26 (protein)
chain: B1 chain with A196D, N271Q
B4: D330E: chimeric modified caspase-9 polypeptide variant (protein)
chain: VDGFGDVGALESLRGNADLAYILSMEPCGHCLIINNVNFCRESGLRTRTGSNIDCEKLRRRFSSLHFMVEVKGDLTAKKMVLALLELARQDHGALDCCVVVILSHGCQASHLQFPGAVYGTDGCPVSVEKIVNIFNGTSCPSLGGKPKLFFIQACGGEQKDHGFEVASTSPEDESPGSNPEPDATPFQEGLRTFDQLEAISSLPTPSDIFVSYSTFPGFVSWRDPKSGSWYVETLDDIFEQWAHSEDLQSLLLRVANAVSVKGIYKQMPGCFNFLRKKLFFKTSASRA
B5: F406T: chimeric modified caspase-9 polypeptide variant (protein)
chain: B4 chain with E198D, F274T
B6: F404W: chimeric modified caspase-9 polypeptide variant (protein)
chain: B4 chain with E198D, F272W
B7: F404Y: chimeric modified caspase-9 polypeptide variant (protein)
chain: B4 chain with E198D, F272Y

Columns and labels:
[1] = tested on: F-Casp9M.I.GFPhigh-transduced T cells; experiment: annexin-V/7-AAD staining of CID-treated transduced CTLs; type: cell-based, human; details: 100 μM for 1 hour prior to adding CID
Procedure: CID (AP20187; ARIAD Pharmaceuticals) at indicated concentrations was added to transfected 293T cells or transduced CTLs. Adherent and nonadherent cells were harvested and washed with annexin binding buffer (BD Pharmingen, San Jose, Calif.). Cells were stained with annexin-V and 7-amino-actinomycin D (7-AAD) for 15 minutes according to the manufacturer's instructions (BD Pharmingen). Within 1 hour after staining, cells were analyzed by flow cytometry using CellQuest software (Becton Dickinson).

[2] = tested on: HEK293T/16 cells; experiment: SEAP reporter-based surrogate killing assay (basal activity and AP1903 IC50); type: cell-based, human; details: for relative SEAP activity Units (basal activity): no AP1903, higher SEAP = lower basal activity; for basal activity / basal signaling (in words): AP1903-independent SEAP activity, vs wild type
Procedure: FIG. 45 provides a schematic of an analysis of SEAP assays. […] of the mixture was seeded onto each well of a 96-well plate. […] For the assay, 4-methylumbelliferyl phosphate substrate was hydrolyzed by SEAP to 4-methylumbelliferon, a metabolite that can be excited with 364 nm and detected with an emission filter of 448 nm. Since SEAP is used as a marker for cell viability, reduced SEAP reading corresponds with increased icaspase-9 activities.
Early passage HEK293T/16 cells (ATCC, Manassas, Va.) were maintained in IMDM, GlutaMAX™ (Life Technologies, Carlsbad, Calif.) supplemented with 10% FBS, 100 U/mL penicillin, and 100 […] until transfection in a humidified, 37° C., 5% CO2/95% air atmosphere. Cells in logarithmic-phase growth were transiently transfected with 800 ng to 2 μg of expression plasmid encoding iCasp9 mutants and 500 ng of an expression plasmid encoding SRα promoter driven SEAP per million cells in 15-mL conical tubes. […] GeneJammer® Transfection Reagent at a ratio of 3 μl per ug of plasmid DNA was used to transiently transfect HEK293T/16 cells in the absence of antibiotics. 100 μl or 2 mL of the transfection mixture was added to each well in 96-well or 6-well plate, respectively.
Briefly, after 65° C. heat denaturation for 45 minutes to reduce background caused by endogenous (and serum-derived) alkaline phosphatases that are sensitive to heat, 5 μl of supernatants was added to 95 μl of PBS and added to 100 μl of substrate buffer, containing 1 μl of 100 mM 4-methylumbelliferyl phosphate (4-MUP; Sigma, St. Louis, Mo.) re-suspended in 2 M diethanolamine. Hydrolysis of 4-MUP by SEAP produces a fluorescent […] with excitation/emission (355/460 nm), which can be easily measured. Assays were performed in black opaque 96-well plates to minimize fluorescence leakage between wells (FIG. 45).

[3] = tested on: PG13 packaging cells; type: cell-based
[4] = tested on: Activated T cells; experiment: Control of T cell proliferation in vitro over 10 days with AP1903; type: cell-based, human; details: AP1903 on days 0 and 4, 10 days
[5] = tested on: HEK293T/16 cells; experiment: Western blot of protein expression and proteolysis; type: cell-based, human
Procedure: The lysates were collected and lysed on ice for 30 min. After pelleting cell debris, protein concentrations from overlying supernatants were measured in 96-well plates with BCA™ Protein Assay as recommended by the manufacturer. 30 μg of proteins were boiled in Laemmli sample buffer (Bio-Rad, Hercules, Calif.) with 2.5% 2-mercaptoethanol for 5 min at 95° C. before being separated by Criterion TGX 10% Tris/glylcine protein gel. Membranes were probed with 1/1000 rabbit anti-human caspase-9 polyclonal antibody followed by 1/10,000 HRP-conjugated goat anti-rabbit IgG F(ab′)2 secondary antibody (Bio-Rad). Protein bands were detected using Supersignal West Femto chemiluminescent substrate. To ensure equivalent sample loading, blots were stripped at 65° C. for 1 hour with Restore PLUS Western Blot Stripping Buffer before labeling with 1/10,000 rabbit anti-actin polyclonal antibody. Unless otherwise stated, all the reagents were purchased from Thermo Scientific.

[6] = tested on: human CD3+CD19+ T cells; experiment: AP1903 dose-dependent elimination in vivo of transduced T cells in NSG mice; design: species or system mouse; details: NSG mice, AP1903 0-5 mg/kg i.p., spleen
Procedure: T cells were transduced with SFG-iCasp9-2A-ΔCD19 retrovirus and injected i.v. into immune deficient mice (NSG). […] After an additional 24 hours, mice were sacrificed and lymphocytes from the spleen (FIG. 61A) and peripheral blood (FIG. 61B) were isolated and analyzed by flow cytometry for the frequency of human CD3+CD19+ T cells.
T cells were transduced with SFG-iCasp9-D330E-2A-ΔCD19 retrovirus and injected i.v. into immune deficient mice (NSG). […] After an additional 24 hours, mice were sacrificed and lymphocytes from the spleen (A) were isolated and analyzed by flow cytometry for the frequency of human CD3+CD19+ T cells.

Row | Molecule | relative SEAP activity Units (basal activity) ([2]; 1 μg iCasp9 per million cells) | relative SEAP activity Units (basal activity) ([2]; 2 μg iCasp9 per million cells) | basal activity / basal signaling (in words) [2] | CD19 mean fluorescence intensity (MFI) of transduced PG13 cells [3] | viral titers [3] | T cell proliferation and survival [4] | also measured
1 | COC(=O)C[C@H](NC(=O)[C@H](C)NC(=O)[C@@H](NC(=O)OCc1ccccc1)C(C)C)C(=O)CF [zVAD-fmk] (Cbz-Val-Ala-Asp(OMe)-CH2F) | – | – | – | – | – | – | effect on CID-induced apoptosis [1]: inhibited
2 | B1 | 148928 | 136863 | low to undetectable basal activity; also recorded: lowered basal activity, but not as low as in N405Q; also recorded: less basal activity than wild type caspase-9; also recorded: lower basal activity; also recorded: lower basal signaling compared to the wild-type caspase-9; also recorded: statistically lower basal signaling | enhanced CD19 mean fluorescence intensity | higher viral titers | halted T cell proliferation | –
3 | B2 | 205772 | 174366 | intermediate; also recorded: lower basal signaling compared to the wild-type caspase-9 | – | – | – | basal activity / basal signaling (in words) ([2]; listed as D330A N405Q): low to undetectable basal activity; cleavage in response to AP1903 [5]: impaired cleavage
4 | B3 | 179081 | 175529 | – | higher levels of CD19; also recorded: enhanced CD19 mean fluorescence intensity; also recorded: higher CD19 MFIs than the other cohorts | higher viral titers | indistinguishable from wild type caspase-9 polypeptide or D330A | cleavage in response to AP1903 [5]: impaired cleavage
5 | B4 | – | – | less basal activity than wild type caspase-9; also recorded: statistically lower basal signaling | enhanced CD19 mean fluorescence intensity | higher viral titers | – | in vivo cytotoxicity profile in response to AP1903 [6]: titratable in vivo
6 | B5 | – | – | lower basal signaling than WT | – | – | – | –
7 | B6 | – | – | lower basal signaling than WT | – | – | – | –
8 | B7 | – | – | lower basal signaling than WT | – | – | indistinguishable from wild type caspase-9 polypeptide or D330A | –
